Assay results: article PMC6597557, “A split fluorescent reporter with rapid and reversible complementation” (Nature Communications, 2019)

B1: CFAST11 (fragment 115–125 of FAST), synthetic peptide (peptide)
peptide: Ac-GDSYWVFVKRV-NH2
notes: C-terminal fragment (residues 115-125) of the engineered reporter FAST; numbers count on: FAST; source: synthetic peptide, bought: Clinisciences (98% purity)
B2: CFAST10, synthetic peptide (peptide)
peptide: Ac-GDSYWVFVKR-NH2
notes: CFAST11 without its last C-terminal residue; numbers count on: FAST; source: synthetic peptide, bought: Clinisciences (98% purity)
B3: NFAST (fragment 1-114 of FAST, Fluorescence-Activating and absorption-Shifting Tag) (domain or fragment)
chain: MEHVAFGSEDIENTLAKMDDGQLDGLAFGAIQLDGDGNILQYNAAEGDITGRDPKQVIGKNFFKDVAPGTDSPEFYGKFKEGVASGNLNTMFEWMIPTSRGPTKVKVHMKKALS
notes: Cloned into pET28a by NheI and XhoI; also called Histag-NFAST; pAG209; source: E. coli Rosetta (DE3) pLysS, purified (Ni-NTA, PD-10 desalting into PBS)

Assays:
Settings in all cases: both partners purified
[1] = target: T1, NFAST (fragment 1–114 of FAST); test: other fluorescence titration; synthetic CFASTn peptides (n = 8–11) and recombinant purified NFAST in the presence of fluorogen (10 µM HMBR; also HBR-3,5DOM); Spark 10M plate reader; one-site-specific binding fit; apparent
T1 construct: N-terminal fragment (residues 1-114) of the engineered fluorogenic reporter FAST, split between Ser 114 and Gly 115; numbers count on: FAST; Cloned in pET28a with NheI and XhoI; Surmise: the His tag is the N-terminal one of the vector; no cleavage is told; also called recombinantly purified NFAST; source: E. coli Rosetta (DE3) pLysS, purified (Ni-NTA, PD-10 desalting)
T1 chain: B3 chain

[2] = target: T2, CFAST11 (fragment 115-125 of FAST); test: other fluorescence titration; NFAST titrated onto 100 nM CFASTn in the presence of 10 µM HMBR; pH 7.4 phosphate buffered saline, 25 °C; excitation 480 nm, emission 540 nm; plate reader; one-site-specific binding fit; apparent
T2 construct: C-terminal fragment 115-125 of the engineered protein FAST; source: synthetic peptide, bought: Clinisciences, 98% purity
T2 peptide: Ac-GDSYWVFVKRV-NH2

[3] = target: T3, CFAST10; test: as above
T3 construct: CFAST11 without its last C-terminal residue; source: synthetic peptide, bought: Clinisciences, 98% purity
T3 peptide: Ac-GDSYWVFVKR-NH2

[4] = target: T4, CFAST9; test: as above
T4 construct: CFAST11 without its last two C-terminal residues; source: synthetic peptide, bought: Clinisciences, 98% purity
T4 peptide: Ac-GDSYWVFVK-NH2

[5] = target: T5, CFAST8; test: as above
T5 construct: CFAST11 without its last three C-terminal residues; source: synthetic peptide, bought: Clinisciences, 98% purity
T5 peptide: Ac-GDSYWVFV-NH2

[6] = target: T2, CFAST11 (fragment 115-125 of FAST); test: other fluorescence titration; NFAST titrated onto 100 nM CFASTn in the presence of 10 µM HBR-3,5DOM; pH 7.4 phosphate buffered saline, 25 °C; excitation 520 nm, emission 600 nm; plate reader; one-site-specific binding fit; apparent
[7] = target: T3, CFAST10; test: as above
[8] = target: T4, CFAST9; test: as above

Binder	binding result [1]	Kd [2] [nM]	Kd [3] [nM]	Kd [4] [µM]	Kd [5] [µM]	Kd [6] [nM]	Kd [7] [µM]	Kd [8] [µM]
B1	binds	–	–	–	–	–	–	–
B2	binds	–	–	–	–	–	–	–
B3	–	210 ± 50	950 ± 80	5.7 ± 0.6	21 ± 4	1400 ± 200	6.2 ± 0.5	25 ± 1
